The record followed here is patent US20100137221A1, “PEPTIDES THAT INTERACT WITH TOPOISOMERASE I AND METHODS THEREOF” (UNIVERSITY UTAH RESEARCH FOUNDATION, priority 2007, published 2010).

In test [1] the target is T1, human topoisomerase I (human, UniProt P11387 1-765, limits assumed).
T1 construct: also called top1; top 1
T1 sequence (looked up): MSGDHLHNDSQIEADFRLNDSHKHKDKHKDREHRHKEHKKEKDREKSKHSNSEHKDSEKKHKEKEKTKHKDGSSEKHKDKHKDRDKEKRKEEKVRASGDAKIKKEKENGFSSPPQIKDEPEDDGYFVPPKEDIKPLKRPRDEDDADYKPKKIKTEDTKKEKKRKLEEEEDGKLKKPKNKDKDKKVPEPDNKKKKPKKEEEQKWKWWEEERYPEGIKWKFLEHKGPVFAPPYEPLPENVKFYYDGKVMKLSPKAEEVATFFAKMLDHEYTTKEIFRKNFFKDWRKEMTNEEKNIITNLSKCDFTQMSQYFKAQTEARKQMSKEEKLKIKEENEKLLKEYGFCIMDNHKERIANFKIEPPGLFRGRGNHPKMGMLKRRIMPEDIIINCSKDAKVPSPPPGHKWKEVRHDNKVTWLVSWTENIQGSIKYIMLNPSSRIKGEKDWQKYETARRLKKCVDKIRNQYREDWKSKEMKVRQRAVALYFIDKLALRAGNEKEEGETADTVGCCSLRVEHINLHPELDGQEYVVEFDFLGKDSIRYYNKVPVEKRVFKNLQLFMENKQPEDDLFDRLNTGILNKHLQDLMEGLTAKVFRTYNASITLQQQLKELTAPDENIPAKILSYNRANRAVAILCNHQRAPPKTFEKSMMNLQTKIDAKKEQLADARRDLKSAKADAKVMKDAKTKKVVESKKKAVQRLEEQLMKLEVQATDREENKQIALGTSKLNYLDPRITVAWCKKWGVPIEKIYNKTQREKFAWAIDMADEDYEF
In words: SPR (BIAcore), 100 kDa top1 applied at 1, 2.5, 5, 10 and 20 nM to the CPP1 flow cell, global fit [left panel]. Here is the method: (§1) Top 1 was applied to flow cells in 1, 2.5, 5, 10 and 20 nM concentrations. The overlaying curves represent the actual data for a given concentration of top 1 and the “fit” curves. Data were fit using the BIAeval 3000 global fitting software.

Test [2] deals with T1, human topoisomerase I. In words: phage display biopanning against top1-DNA-9AC, analytical titering against top1. Here is the method:
Phage display: Phage display was performed as described by Smith (Parmley 1989). Briefly, top1 was first biotinylated with a biotin derivative containing a spacer engineered to reduced steric interference (Pierce EZ-Link Biotin-PEO-Amine). The reaction was performed at a 5:1 molar ratio of biotin:top1 in 10 mM HEPES (pH 8.2) buffered 500 mM NaCl. The unreacted biotin was removed by gel filtration in a Biospin 30 column (BioRad) and biotinylated top1 was assayed for activity using a pull down method with streptavidin coated beads. The biotinylated top1 maintained catalytic activity. For phage display, 20 μg biotinylated top1 was reacted with a mixture of pBR322 and 9AC and 20 μg was applied to a 30 mm plastic petri dish coated with 10 μg of neutravidin (Pierce). The dish was then blocked with 3.0% bovine serum albumin, and 10 μl of a 10⁹/μl titer phage library in 100 μl TBS-0.05% Tween was added. Phage were allowed to associate with gentle rocking for 2 hours at 4° C., and then washed repeatedly over 2 hours at 4° C. with buffered saline containing 0.1% Tween. […]
Analytical titering: Ten μl of amplified phage clones (approximately 10¹² cfu) were incubated in 50 nM top1 for one hour at 4° C. on a rocker. […] Competent E. coli were added directly to the washed plates and the output assessed by counting a 10⁻⁶ dilution of the culture on tetracycline plates (FIG. 1). […]

The target in test [3] is T1, human topoisomerase I. In words: fluorescence polarization, human placental 91 kDa top1 titrated into 500 nM fluorescein-labeled T1BP1; the concentration is that of top1. A general note: Polarisation of emitted light reports the rotation of a fluorescent probe.
Test [4] addresses T1, human topoisomerase I. In words: SPR (BIAcore), 100 kDa top1 applied at 1, 2.5, 5, 10 and 20 nM to the CPP4 flow cell, global fit [right panel]. Here is the method: as §1
For orientation: Surface plasmon resonance follows binding to a sensor surface in real time, without labels.

B1: CPP1 (peptide)
peptide: LAVRRYALGNGYDWS
As for B1, in the test with human topoisomerase I [1], the binding result is reported as “binds”.

B2: T1BP5 (peptide)
peptide: EGQFTFPRGASE
notes: 12-mer, truncated due to a stop codon; also called CPP6; EGQFTFPRGASE
Regarding B2, the binding result with human topoisomerase I [2] is “binds”.

B3: T1BP1 (peptide)
peptide: SSQVVGVPQLMQSSP
notes: also called CPP2
By EC50 (read off the curve) is commonly meant the concentration at which the effect is half-maximal. A higher EC50 (read off the curve) goes with a need for much substance. Regarding B3, in the test with human topoisomerase I [3], the “EC50 (read off the curve)” value was ~100 nM.

B4: T1BP3 (peptide)
peptide: DRVPLVHVIFNSFGY
notes: also called CPP4
With B4, in the test with human topoisomerase I [4], the binding result is reported as “binds”.
